US10189887B2, “Polypeptides and uses thereof for reducing CD95-mediated cell motility” (INSERM (INSTITUT NATIONAL DE LA SANTÉ ET DE LA RECHERCHE …, priority 2014, dated 2019)

Assays:
CD95/PLCγ1 = target: T1, CD95/PLCγ1 (Homo sapiens, UniProt P19174); assay: PLCγ1 recruitment to CD95 (immunoprecipitation and immunoblotting); type: cell-based
T1 construct: endogenous in cells; host or cells: CEM (human leukemic T-cell line)
T1 sequence (P19174 2-1290 limits assumed): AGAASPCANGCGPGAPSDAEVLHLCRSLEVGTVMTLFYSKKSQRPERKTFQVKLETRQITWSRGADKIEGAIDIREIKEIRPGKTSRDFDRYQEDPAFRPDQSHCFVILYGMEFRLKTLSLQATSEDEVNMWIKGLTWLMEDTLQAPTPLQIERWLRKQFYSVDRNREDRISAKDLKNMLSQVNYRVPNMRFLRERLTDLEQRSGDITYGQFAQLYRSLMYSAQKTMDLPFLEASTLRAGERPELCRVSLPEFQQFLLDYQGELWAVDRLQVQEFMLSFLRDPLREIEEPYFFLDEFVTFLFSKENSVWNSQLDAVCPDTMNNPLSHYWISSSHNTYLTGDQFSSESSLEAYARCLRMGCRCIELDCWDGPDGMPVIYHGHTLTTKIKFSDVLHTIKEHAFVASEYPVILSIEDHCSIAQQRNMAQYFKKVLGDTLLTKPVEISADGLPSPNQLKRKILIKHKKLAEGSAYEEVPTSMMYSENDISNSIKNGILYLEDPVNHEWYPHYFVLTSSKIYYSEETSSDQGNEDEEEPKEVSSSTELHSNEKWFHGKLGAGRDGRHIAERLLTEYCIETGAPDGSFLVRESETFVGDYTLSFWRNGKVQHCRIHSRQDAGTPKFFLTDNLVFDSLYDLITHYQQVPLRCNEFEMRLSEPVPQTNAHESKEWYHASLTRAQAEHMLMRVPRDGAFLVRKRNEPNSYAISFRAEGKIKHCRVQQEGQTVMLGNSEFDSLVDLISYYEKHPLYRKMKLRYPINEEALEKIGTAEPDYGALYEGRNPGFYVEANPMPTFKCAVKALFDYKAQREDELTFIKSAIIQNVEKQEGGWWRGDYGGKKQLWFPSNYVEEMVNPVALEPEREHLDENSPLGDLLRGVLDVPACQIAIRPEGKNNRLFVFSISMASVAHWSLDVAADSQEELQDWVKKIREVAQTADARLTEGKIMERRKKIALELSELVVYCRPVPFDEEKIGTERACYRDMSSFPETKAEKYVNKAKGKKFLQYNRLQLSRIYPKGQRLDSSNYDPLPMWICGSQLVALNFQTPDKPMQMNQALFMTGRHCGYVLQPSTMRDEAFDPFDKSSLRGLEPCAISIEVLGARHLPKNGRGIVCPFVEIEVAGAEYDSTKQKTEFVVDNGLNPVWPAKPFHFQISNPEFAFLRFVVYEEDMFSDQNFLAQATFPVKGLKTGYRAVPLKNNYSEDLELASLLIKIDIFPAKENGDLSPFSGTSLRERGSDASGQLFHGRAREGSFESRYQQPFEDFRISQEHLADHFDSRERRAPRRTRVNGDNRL
Experimental: T-cells (5×10^7 cells per condition) were stimulated with Ig-CD95L or cl-CD95L (100 ng/mL) for indicated times at 37° C. Cells were lysed, incubated with APO1.3 (1 ug/mL) for 15 min at 4° C. and CD95 was immunoprecipitated using A/G protein-coupled magnetic beads (Ademtech, Pessac, France) for 1 h. After extensive washing, the immune complex was resolved by SDS-PAGE and immunoblotting was performed with indicated antibodies.
Cells were lyzed for 30 minutes at 4° C. in lysis buffer (25 mM HEPES pH 7.4, 1% v/v Triton X-100, 150 mM NaCl, 2 mM EGTA supplemented with a mix of protease inhibitors (Sigma-Aldrich)). Protein concentration was determined by the bicinchoninic acid method (PIERCE, Rockford, Ill., USA) according to the manufacturer's protocol. Proteins were separated on a 12% SDS-PAGE and transferred to a nitrocellulose membrane (GE Healthcare, Buckinghamshire, England). The membrane was blocked 15 minutes with TBST (50 mM Tris, 160 mM NaCl, 0.05% v/v Tween 20, pH 7.8) containing 5% w/v dried skimmed milk (TBSTM). Primary antibody was incubated overnight at 4° C. in TBSTM. The membrane was intensively washed (TBST) and then the peroxydase-labeled anti-rabbit or anti-mouse (SouthernBiotech, Birmingham, Ala., US) was added for 45 minutes. The proteins were visualized with the enhanced chemiluminescence substrate kit (ECL, GE Healthcare).

[1] = test system: CD95-mediated Ca^2+ response; assay: Calcium response to cl-CD95L in MDA MB 231 cells; type: cell-based; details: MDA MB 231 pre-incubated 1 hr, 10 μM peptide; 100 ng/ml cl-CD95L
Experimental: Cells were loaded with Fura2-AM (1 μM) at resting temperature for 30 min in Hank's Balanced Salt Solution (HBSS). After washing with HBSS, the cells were incubated for 15 min in the absence of Fura2-AM to complete de-esterification of the dye. Cells were placed in a thermostated chamber (37° C.) of an inverted epifluorescence microscope (Olympus IX70) equipped with a ×40, UApo/340-1.15 W water-immersion objective (Olympus), and fluorescence micrograph images were captured at 510 nm and at 12-bit resolution by a fast-scan camera (CoolSNAP fx Monochrome, Photometrics). To minimize UV light exposure, 4×4 binning function was used. Fura2-AM was alternately excited at 340 and 380 nm, and ratios of the resulting images (excitations at 340 and 380 nm and emission filter at 520 nm) were produced at constant intervals (5 s or 10 s according to the stimulus). […] Fluorescent images were pseudocolored using the IMD display mode in MetaFluor and assembled without further manipulation in Photoshop (Adobe). Raw data were acquired with MetaFluor and graphed in Origin (OriginLab). […]

PLCγ1 recruitment to CD95 (CD95/PLCγ1; T cell lines Jurkat and CEM pre-incubated 1 h with 10 μM, cl-CD95L 100 ng/mL): impaired PLCγ1 recruitment | PLCγ1 binding to CD95 (CD95/PLCγ1; activated T lymphocytes from healthy subjects, pre-incubation): inhibited the PLCγ1 binding to CD95
Substance: TAT-CID: cell penetrating peptide linking the 36-amino acid-stretch of CID (CD95 residues 175 to 210) to the HIV-TAT sequence; SEQ ID NO: 6 (RKKRRQRRRKRKEVQKTCRKHRKENQGSHESPTLNPETVAINLSD; TAT-CID)
calcium response to cl-CD95L [1]: completely abolished the calcium response
